Results from patent publication US7132278.
Numbering of substitutions follows the chain as printed.

T1: AMARA peptide, synthetic substrate NH2-AMARAASAAALARRR-CO2H
T1 chain: AMARAASAAALARRR

B1: PASK ΔN, truncated variant of human PASK lacking both PAS domains (protein)
chain: SLPGSTHSTAAELTGPSLVEVLRARPWFEEPPKAVELEGLAACEGEYSQKYSTMSPLGSGAFGFVWTAVDKEKNKEVVVKFIKKEKVLEDCWIEDPKLGKVTLEIAILSRVEHANIIKVLDIFENQGFFQLVMEKHGSGLDLFAFIDRHPRLDEPLASYIFRQLVSAVGYLRLKDIIHRDIKDENIVIAEDFTIKLIDFGSAAYLERGKLFYTFCGTIEYCAPEVLMGNPYRGPELEMWSLGVTLYTLVFEENPFCELEETVEAAIHPPYLVSKELMSLVSGLLQPVPERRTTLEKLVTDPWVTQPVNLADYTWEEVCRVNKPESGVLSAASLEMGNRSLSDVAQAQELCGGPVPGEAPNGQGCLHPGDPRLLTS
B2: human PASK S1287,89A, pre-phosphorylated (protein)
chain: MEDGGLTAFEEDQRCLSQSLPLPVSAEGPAAQTTAEPSRSFSSAHRHLSRRNGLSRLCQSRTALSEDRWSSYCLSSLAAQNICTSKLHCPAAPEHTDPSEPRGSVSCCSLLRGLSSGWSSPLLPAPVCNPNKAIFTVDAKTTEILVANDKACGLLGYSSQDLIGQKLTQFFLRSDSDVVEALSEEHMEADGHAAVVFGTVVDIISRSGEKIPVSVWMKRMRQERRLCCVVVLEPVERVSTWVAFQSDGTVTSCDSLFAHLHGYVSGEDVAGQHITDLIPSVQLPPSGQHIPKNLKIQRSVGRARDGTTFPLSLKLKSQPSSEEATTGEAAPVSGYRASVWVFCTISGLITLLPDGTIHGINHSFALTLFGYGKTELLGKNITFLIPGFYSYMDLAYNSSLQLPDLASCLDVGNESGCGERTLDPWQGQDPAEGGQDPRINVVLAGGHVVPRDEIRKLMESQDIFTGTQTELIAGGQLLSCLSPQPAPGVDNVPEGSLPVHGEQALPKDQQITALGREEPVAIESPGQDLLGESRSEPVDVKPFASCEDSEAPVPAEDGGSDAGMCGLCQKAQLERMGVSGPSGSDLWAGAAVAKPQAKGQLAGGSLLMHCPCYGSEWGLWWRSQDLAPSPSGMAGLSFGTPTLDEPWLGVENDREELQTCLIKEQLSQLSLAGALDVPHAELVPTECQAVTAPVSSCDLGGRDLCGGCTGSSSACYALATDLPGGLEAVEAQEVDVNSFSWNLKELFFSDQTDQTSSNCSCATSELRETPSSLAVGSDPDVGSLQEQGSCVLDDRELLLLTGTCVDLGQGRRFRESCVGHDPTEPLEVCLVSSEHYAASDRESPGHVPSTLDAGPEDTCPSAEEPRLNVQVTSTPVIVMRGAAGLQREIQEGAYSGSCHHRDGLRLSIQFEVRRVELQGPTPLFCCWLVKDLLHSQRDSAARTRLFLASLPGSTHSTAAELTGPSLVEVLRARPWFEEPPKAVELEGLAACEGEYSQKYSTMSPLGSGAFGFVWTAVDKEKNKEVVVKFIKKEKVLEDCWIEDPKLGKVTLEIAILSRVEHANIIKVLDIFENQGFFQLVMEKHGSGLDLFAFIDRHPRLDEPLASYIFRQLVSAVGYLRLKDIIHRDIKDENIVIAEDFTIKLIDFGSAAYLERGKLFYTFCGTIEYCAPEVLMGNPYRGPELEMWSLGVTLYTLVFEENPFCELEETVEAAIHPPYLVSKELMSLVSGLLQPVPERRTTLEKLVTDPWVTQPVNLADYTWEEVCRVNKPESGVLSAASLEMGNRALADVAQAQELCGGPVPGEAPNGQGCLHPGDPRLLTS
B3: human PASK S1273-1289A, pre-phosphorylated (protein)
chain: B2 chain with S1273A, S1277A, S1280A

Target: T1, AMARA peptide, synthetic substrate …

Point of comparison: B3, Km (mM), pre-phosphorylated 0.2 mM. Against it:
- B1 — within 1.5-fold, 0.3 mM
- B2 — the same, 0.2 mM
